Test results published in publication PMC12700547, “Auranofin attenuates TOPBP1-mediated ATR replication stress response and improves chemotherapeutic response in breast tumor models” (The Journal of Clinical Investigation, 2025).
Where no end group is shown, it is not given here. [ ]: non-standard residue; d: D form. pT = C[C@@H](OP(=O)(O)O)[C@H](N)C(=O)O

Legend:
auranofin = assay: BLI; details: auranofin 25, 50, 100, 200 µM; n = 2; parent: 2.358E-5 M
[1] = biological target: T1, His-tagged recombinant TOPBP1 BRCT 7–8 (UniProt Q92547 1264-1493); assay: BLI; Octet RED96; biotin-peptides immobilized on biosensors; His-tagged BRCT 7–8 (1 μM) alone or preincubated with a serial dilution of compound (auranofin) as analyte; PBS with 0.1% BSA, 0.02% Tween-20, 1% DMSO; 2 minutes of dissociation; 1:1 binding model with local fit; details: both partners purified
T1 construct: The cited crystal structures 7CMZ and 3AL3 hold BRCT 7–8; also called BRCT 7–8/WT; His-tagged BRCT 7–8; source: E coli cells, purified
T1 sequence (Q92547 1264-1493): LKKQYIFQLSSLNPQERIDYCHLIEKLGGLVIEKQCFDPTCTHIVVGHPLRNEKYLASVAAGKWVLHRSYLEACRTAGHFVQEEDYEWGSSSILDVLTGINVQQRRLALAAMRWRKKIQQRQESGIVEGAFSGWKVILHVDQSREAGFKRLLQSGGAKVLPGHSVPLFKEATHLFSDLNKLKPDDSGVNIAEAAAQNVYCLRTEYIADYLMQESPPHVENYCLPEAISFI

Molecule	Kd (auranofin) [mM]	binding result [1]
His-tagged recombinant TOPBP1 BRCT 7–8 (from UniProt Q92547) F1411A	4.22	–
GACFKDAEYIYPSLESDDDDPA (not fully specified (N-terminus); also: biotin, position not given here, also called PHF8/APS peptide) [biotin-APS peptide (acidic patch sequence of PHF8)]	–	binds
EAEDESIYF[pT]PELYDPEDT (not fully specified (N-terminus); printed as EAEDESIYF(pT)PELYDPEDT; also: biotin (site not given here), also called phosphorylated FANCJ peptide) [biotin-pFANCJ peptide (phosphorylated Thr1133 containing peptide of FANCJ)]	–	binds
ECKHLPESLYPHTYN (not fully specified (N-terminus); printed as ECKHLPESLY_989_PHTYN; also: biotin, position not given here) [biotin-Y989 peptide (Y989-containing peptide of the TOPBP1 AAD)]	–	binds
TLEMRENFQKQLQEI (not fully specified (N-terminus); printed as TLEMRENF_1071_QKQLQEI; also: biotin, position not given here) [biotin-F1071 peptide (F1071-containing peptide of the TOPBP1 AAD)]	–	binds
